Test [1] concerns the target T1, human CD40 on cells (human, UniProt P25942 21-277). The experiment in a line: cell-based or functional assay.
Test [2] deals with T2, human CD40 protein (human, UniProt P25942 21-193, limits assumed).
T2 construct: the construct is not described
Put plainly: BLI (Octet Red 96e), antibody captured on AHC sensor, human CD40 protein in solution, 1:1 global fit. The protocol:
To detect the affinity of CD40 antibodies for antigens such as human CD40 protein, the binding kinetics between antigen and antibody was analyzed using an Octet Red 96e (Fortebio) molecular interaction analyzer by biolayer interferometry (BLI) technique.
For determining the affinity of antibodies for antigens, the rotary speed of the sensor was set at 1000 rpm. […] The AHC sensors were finally regenerated by immersing in a 10 mM glycine-hydrochloric acid solution with pH 1.5 to elute the protein bound to the sensors.
For data analysis using Octet Data Analysis software (Fortebio, version 11.0), 0 nM well was used as the reference well, reference subtraction was performed, “1:1 Global fitting” method was selected for data fitting, the kinetic parameters of the binding of the antigen to the CD40 antibodies were calculated, and the kon (1/Ms) value, kdis (1/s) value and KD (M) value were obtained.
(In general: Biolayer interferometry detects binding as a change in optical thickness at a sensor tip.)

Test [3] addresses T3, cynomolgus monkey CD40 on cells (cynomolgus monkey, UniProt G7PG38 21-278).
T3 construct: also called cyCD40; CHO-K1/cyCD40
The experiment in a line: FACS, CHO-K1/cyCD40 cells. The method in brief: (§1)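 Antibody binding to CHO-K1/hCD40, CHO-K1/cyCD40 or Raji cells, 8 concentrations, 5-fold dilutions from 300 nM final, 1 h at 4° C. in the dark. Detection with Alexa Fluor 488 anti-human IgG, flow cytometry; EC50 from four-parameter nonlinear fit; hIgG negative control.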

Test [4] concerns the target T1, human CD40 on cells. The experiment in a line: FACS, inhibition of human CD40L-his binding to CHO-K1/hCD40 cells. The protocol:
To detect the effect of CD40 antibodies on the binding of CD40 to CD40L, CHO-K1/hCD40 cells were plated at 2×10⁵/well or 100 μL/well into a 96-well plate (Corning, #3799) and centrifuged, and the supernatant was taken and the dilution solution of the antigen binding protein to be tested was added at 50 μL/well with an initial concentration of 500 nM, 5-fold concentration dilution and a total of 8 concentrations. 20 μg/mL of human CD40L-his protein (Sino biological, #10239-H08E) was added at 50 μL/well, the cells were incubated at 4° C. for 1 hour and then washed 3 times with FACS buffer (1×PBS with 2% FBS). 1:400 diluted anti-histidine tag secondary antibody (GenScript, #A01800) was added, and the cells were incubated at 4° C. for 1 hour, then washed 2 times with FACS buffer, and resuspended in pre-chilled PBS. The fluorescence signal values were read using a BD FACS CANTOII flow cytometer or ACEA NovoCyte flow cytometer, and the data were processed and analyzed using FlowJo v10 software (FlowJo, LLC).
Data processing and graphical analysis were performed using GraphPad Prism 8 software. The curve of the antibody concentration-dependent inhibition rate and parameters, such as IC50 value were obtained by four-parameter nonlinear fitting.
On the technique in general: In flow cytometry, cells or beads pass a laser one at a time.

The target in test [5] is T1, human CD40 on cells. The experiment in a line: FACS, Raji cells. Put shortly: as §1
The target in test [6] is T1, human CD40 on cells. Put plainly: FACS, CHO-K1/hCD40 cells. The method in brief:
as §1

T1 sequence (P25942 21-277): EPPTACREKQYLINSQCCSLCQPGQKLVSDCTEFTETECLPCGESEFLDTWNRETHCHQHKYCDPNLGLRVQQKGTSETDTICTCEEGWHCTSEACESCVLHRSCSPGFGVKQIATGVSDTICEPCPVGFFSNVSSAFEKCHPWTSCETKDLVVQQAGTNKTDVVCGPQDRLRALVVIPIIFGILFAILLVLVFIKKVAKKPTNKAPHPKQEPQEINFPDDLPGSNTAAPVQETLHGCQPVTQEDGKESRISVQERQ
T2 sequence (P25942 21-193 limits assumed): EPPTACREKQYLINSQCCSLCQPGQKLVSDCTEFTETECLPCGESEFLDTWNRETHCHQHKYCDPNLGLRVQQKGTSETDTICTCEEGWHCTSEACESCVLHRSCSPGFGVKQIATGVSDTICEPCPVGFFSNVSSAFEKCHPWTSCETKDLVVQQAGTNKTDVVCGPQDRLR
T3 sequence (G7PG38 entry or part of it limits assumed): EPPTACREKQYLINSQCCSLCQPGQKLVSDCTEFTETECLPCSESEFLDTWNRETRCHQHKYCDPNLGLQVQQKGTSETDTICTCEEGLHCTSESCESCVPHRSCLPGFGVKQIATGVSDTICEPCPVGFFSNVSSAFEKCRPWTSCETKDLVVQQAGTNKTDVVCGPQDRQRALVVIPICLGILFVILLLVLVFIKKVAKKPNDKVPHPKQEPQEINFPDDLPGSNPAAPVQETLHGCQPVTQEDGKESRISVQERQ

B1: PR001306 (CDX-1140) (antibody, human IgG2, kappa, V domains shown)
VH: QVQLVESGGGVVQPGKSLRLSCAASGFTFSSNGIHWVRQAPGKGLEWVAVIWSDGSNKFYADSVKGRFTISRDNSKNTLYLQMNSLRAEDTAVYYCARASGSGSYYNFFDYWGQGTLVTVSS
VL: EIVMTQSPATLSVSPGERATLSCRASQSVRSNLAWYQQKPGQAPRLLIYGASTRATGIPARFSGSGSGTEFTLTINSLQSEDFAVYYCQQHNKWITFGQGTRLEIKR
notes: CD40 positive control antibody
In general, Kd refers to a measure of binding affinity in units of concentration. What is called koff is a measure of how fast the partners let go of each other. Broadly, the kon is the second-order rate constant of association. Broadly, the EC50 is the concentration needed to bring the measured effect to its halfway point. A word on the IC50: it is the concentration that gives 50% inhibition. As for B1, in test [1], the “EC50 (nM), crosslinked (CHO-K1/hCD32B), HEK293-hCD40-NFkB reporter” value is 0.0506 nM; the “EC50 (nM), uncrosslinked, HEK293-hCD40-NFkB reporter” value came out at 0.0371 nM; the “Maximum RLU, crosslinked (CHO-K1/hCD32B), HEK293-hCD40-NFkB reporter” value was 22600 RLU; the “Maximum RLU, uncrosslinked, HEK293-hCD40-NFkB reporter” value was 20000 RLU. In addition, the “RLU fold (crosslinked/uncrosslinked)” value in test [1] was 1.13 fold. Also, in test [2], the Kd amounted to 525 pM, the koff came out at 0.00057 s⁻¹ and the kon was 1.09e+06 M⁻¹ s⁻¹. In test [3], the EC50 was 5540 pM and the “Maximum MFI” value is 39700 MFI. In test [4], the IC50 worked out at 4400 pM and the “Maximum inhibition rate (%)” value worked out at 24%. In test [5], a half-maximal effect (EC50) was put at 28 pM and the “Maximum MFI” value was 614 MFI. Besides, in test [6], the EC50 came out at 12200 pM and the “Maximum MFI” value came out at 29200 MFI.

For the origin of these results see patent US20250215100A1 (HARBOUR BIOMED SHANGHAI, published 2025).
